In general, Km refers to the concentration of substrate that gives half-maximal velocity.

Substrate in data set [1]: N[C@@H](Cc1ccccc1)C(=O)O
Put plainly: yeast microsomes, LC-MS/MS of (E/Z)-phenylacetaldoxime formed. Type of data set: biochemical, Zea mays. Particulars: 1 mM NADPH, 75 mM sodium phosphate pH 7.0, 25 °C, 30 min, microsomes with Arabidopsis CPR1.

Substrate in data set [2]: N[C@@H](Cc1c[nH]c2ccccc12)C(=O)O
Put plainly: yeast microsomes, LC-MS/MS of (E/Z)-indole-3-acetaldoxime formed. Type of data set: biochemical, Zea mays. Particulars: 1 mM NADPH, 75 mM sodium phosphate pH 7.0, 25 °C, 30 min, microsomes with Arabidopsis CPR1.

B1: CYP79A61 (Zea mays subsp. mays) (protein)
chain: MVSSPQANKFPLRKQISSPSSSCMAPHVLLVLVILLYLVRTLRPWRSRRNSTCCTPSLPPGPVPWPVVGNLPEMMLSDKPAFHWIHHIMKEAGTDIACIKLGGVHVIPISCPKIALEVLSNQDANFASRPLTFASKTFSTGYRDAAMSHCGDHWKKMRRVLASEIVCPSRHRWLHDKRADEADNLTRYVYNLATKAGSSGAVDVRHIARHYCGNVVRRLMFNTRYFGKPQPDSGPGPLEVQHVDAVFTSLGLLYSFCVSDYLPWLLGLDLDGHEKMVKEANERVTRLHDAVIDERWRLWKSGERRELEDFLDVLIMLKDAEAGRPVLSIEEVKALLMDITFASMDNPSNAVEWALAEMVNNPTMLKKAVDEIDSVVGQERLVQEHDIPRLNYTKACIREAFRLHPVAPFNVPHVAVADATVAGYRIPKGSHVILSRTGLGRNPDVWDDPLRFDPERHIPLSPEMEVSLVERDLRFISFSTGRRGCIAAALGTDMTIMLFGRLLQGFSWSKMTGVAAIDLSESRHNTFMARPLVLQAKPRLPAHLYPGILLCK
notes: complete open reading frame, untagged as far as told, pESC-Leu2d, Saccharomyces cerevisiae WAT11 microsomes with Arabidopsis CPR1
In the case of B1, the figures for the Michaelis-Menten constant (Km) in data set [1] and in data set [2] were 117.2 ± 6.0 µM and 150.2 ± 9.2 µM, respectively.

(Values after paper PMC4446944, “The maize cytochrome P450 CYP79A61 produces phenylacetaldoxime and indole-3-acetaldoxime in heterologous systems and might contribute to plant defense and auxin formation” (BMC Plant Biology, 2015).)
